Experimental data published in the supplement of paper PMC10724198.
± gives the standard deviation of the averaged measurements.

System: Saccharomyces cerevisiae
Assay: protein stability index of tFT-peptide fusion (C-terminal peptide) (PSI (0-1 scale)); higher = more stable (slower turnover)
Details: genetic background: wild type; temperature: 30 C
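Further: PSI is a weighted mean of sequencing reads over stability bins, variants kept only with over 10 reads, mCherry proximal and sfGFP distal, peptide attached via GGGS linker.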

Compared with VFGRQVRVNGGS, VFLGRWKFFFWG is lower in protein stability index: 0.707 ± 0.043 for the first, 0.619 ± 0.023 for the second.

First: VFQVFSVGTCSG
Second: VFRFGVCDDWCV
The protein stability index of the first is lower: 0.6451 ± 0.0039 for the first, 0.765 ± 0.018 for the second.

VFRGGGAVGSVR and VFRSRTSSLFTP are within error of each other in protein stability index: 0.683 ± 0.043 for the first, 0.6794 ± 0.0058 for the second.

First: VFVDGVSYGGLC
Second: VFVFRLYFCGCC
The protein stability index of the first is higher: 0.6811 ± 0.0058 for the first, 0.495 ± 0.015 for the second.

VFVRSNSGACKN and VGAGAGGVGWVL are within error of each other in protein stability index: 0.682 ± 0.027 for the first, 0.749 ± 0.056 for the second.

VGCLGYNSAGIN and VGCPLSLDAPEG are within error of each other in protein stability index: 0.6968 ± 0.0065 for the first, 0.687 ± 0.029 for the second.

VGDGGGEVMGEA and VGEAGTRASVPV are within error of each other in protein stability index: 0.677 ± 0.053 for the first, 0.665 ± 0.12 for the second.

VGELCGVGGRGG and VGFCFDGVHFRA are within error of each other in protein stability index: 0.68 ± 0.13 for the first, 0.639 ± 0.016 for the second.

VGFFLGVLLSLL and VGFGLIVWSSGW are within error of each other in protein stability index: 0.521 ± 0.0085 for the first, 0.529 ± 0.0077 for the second.

First: VGGAGDWRWGVW
Second: VGGAVDFSVFFC
The protein stability index of the first is higher: 0.805 ± 0.018 for the first, 0.585 ± 0.018 for the second.

VGGCRLTRSSVW and VGGDRVGPEPEC are within error of each other in protein stability index: 0.688 ± 0.011 for the first, 0.718 ± 0.063 for the second.

VGGEGKVVRGQE and VGGGACVWSRRR are within error of each other in protein stability index: 0.6518 ± 0.00034 for the first, 0.698 ± 0.05 for the second.

VGGGWGGGVVLV and VGGLMVYTGDVA are within error of each other in protein stability index: 0.696 ± 0.0071 for the first, 0.704 ± 0.015 for the second.

VGGRVCQSEGVE and VGGWGERGRGGS are within error of each other in protein stability index: 0.685 ± 0.0058 for the first, 0.696 ± 0.015 for the second.

VGHRGVQAGGVG and VGKTVKQLSLIS are within error of each other in protein stability index: 0.618 ± 0.016 for the first, 0.597 ± 0.039 for the second.

Compared with VGLAVWAAKLGR, VGLEVGPLVGGE is lower in protein stability index: 0.739 ± 0.018 for the first, 0.6921 ± 0.0029 for the second.

VGLGLSVGKKEI and VGLLWEYVRLDG are within error of each other in protein stability index: 0.651 ± 0.098 for the first, 0.7079 ± 0.0036 for the second.

Compared with VGLTGFQHTEWG, VGMGRAPGPDPA is lower in protein stability index: 0.753 ± 0.027 for the first, 0.646 ± 0.0093 for the second.

VGPGRRGWEGAP and VGPPWSISLSII are within error of each other in protein stability index: 0.663 ± 0.022 for the first, 0.636 ± 0.013 for the second.

VGQVVTCFMSDA and VGSCGGGKVVVE are within error of each other in protein stability index: 0.678 ± 0.028 for the first, 0.6555 ± 0.00076 for the second.

First: VGSDICLGLCLL
Second: VGSKGCDGCNRA
The protein stability index of the first is higher: 0.871 ± 0.02 for the first, 0.655 ± 0.047 for the second.

Going from VGTAVVDRHGVR to VGTVREVYCQGG, the protein stability index rises from 0.603 ± 0.045 to 0.678 ± 0.014.

VGVFRCLPGQVG and VGVGDGLIRRSS are within error of each other in protein stability index: 0.677 ± 0.057 for the first, 0.7338 ± 0.004 for the second.

Going from VGVLCWLFLGVG to VGVWDGCLLGLG, the protein stability index rises from 0.501 ± 0.008 to 0.695 ± 0.028.

Compared with VGWAVNGSMVVG, VGWCPLVGGSGQ is higher in protein stability index: 0.662 ± 0.021 for the first, 0.753 ± 0.039 for the second.

VGYGEVSGGGRM and VHFSSSCDYLIV are within error of each other in protein stability index: 0.732 ± 0.026 for the first, 0.653 ± 0.081 for the second.

VHGGKREGGGEG and VHRFPPAPFCTP are within error of each other in protein stability index: 0.667 ± 0.039 for the first, 0.734 ± 0.047 for the second.

VHRPFDGFSRAG and VHSMSRTFARPV are within error of each other in protein stability index: 0.662 ± 0.011 for the first, 0.683 ± 0.051 for the second.

First: VIASPALLLPLF
Second: VIDFAELGTVAH
The protein stability index of the first is lower: 0.642 ± 0.062 for the first, 0.7301 ± 0.005 for the second.

VIDTGAGSILEI and VIESRNEEGGRV are within error of each other in protein stability index: 0.7 ± 0.042 for the first, 0.727 ± 0.022 for the second.

Compared with VIFCFCSRSCFL, VIGAGTGCVVVG is higher in protein stability index: 0.643 ± 0.037 for the first, 0.72 ± 0.013 for the second.

Going from VIMAEVLCVSNL to VIPREPSEPHTA, the protein stability index rises from 0.508 ± 0.0071 to 0.639 ± 0.021.

First: VIVKNINKNTQI
Second: VKGKLGSGSYIH
The protein stability index of the first is higher: 0.717 ± 0.038 for the first, 0.644 ± 0.022 for the second.

VKQFLICKNGRS and VKSFRFPHPVWN are within error of each other in protein stability index: 0.728 ± 0.12 for the first, 0.682 ± 0.011 for the second.

VKWAIWGGMEWR and VKWFRESRMVGA are within error of each other in protein stability index: 0.667 ± 0.07 for the first, 0.65 ± 0.027 for the second.

VLADIGSAGIGR and VLCRSLAGCCFV are within error of each other in protein stability index: 0.711 ± 0.014 for the first, 0.709 ± 0.012 for the second.

VLFEARFSLRQS and VLFPLPFPCVSF are within error of each other in protein stability index: 0.6768 ± 0.0044 for the first, 0.681 ± 0.06 for the second.

First: VLFPPGFPPGLL
Second: VLFPPLCLSFCF
The protein stability index of the first is higher: 0.817 ± 0.04 for the first, 0.498 ± 0.044 for the second.

VLGASFTATYFQ and VLGCSVIADSCR are within error of each other in protein stability index: 0.749 ± 0.077 for the first, 0.637 ± 0.053 for the second.

VLGDSASFWSCP and VLGGGPSIRGLM are within error of each other in protein stability index: 0.765 ± 0.15 for the first, 0.655 ± 0.027 for the second.

In the case of VLGVGSFCLGVV, the protein stability index is reported as 0.622 ± 0.018.
